From patent publication US20220220215A1

Molecular target: human CD137 expressed on cells (Jurkat human CD137 NF-kB luciferase reporter cells; human CD8+ T cells) (human) (UniProt Q07011)
Experiment: cell-based or functional assay

Substance: Urelumab analog (antibody)
- CD8+ T-cell activation assay - IL-2 release, EC50: 0.397 nM
